Source: patent publication US20240035010, “COMPOSITIONS COMPRISING A VARIANT POLYPEPTIDE AND USES THEREOF” (Arbor Biotechnologies, Inc., published 2024)

Legend:
[1] = biological target: T1, variant nuclease L38G combination (P14R, D32R, I61R, E311R, L38G); assay: cell_activity; PAM 5'-TTTG-3'; details: tags: pcDNA3.1 expression
T1 chain: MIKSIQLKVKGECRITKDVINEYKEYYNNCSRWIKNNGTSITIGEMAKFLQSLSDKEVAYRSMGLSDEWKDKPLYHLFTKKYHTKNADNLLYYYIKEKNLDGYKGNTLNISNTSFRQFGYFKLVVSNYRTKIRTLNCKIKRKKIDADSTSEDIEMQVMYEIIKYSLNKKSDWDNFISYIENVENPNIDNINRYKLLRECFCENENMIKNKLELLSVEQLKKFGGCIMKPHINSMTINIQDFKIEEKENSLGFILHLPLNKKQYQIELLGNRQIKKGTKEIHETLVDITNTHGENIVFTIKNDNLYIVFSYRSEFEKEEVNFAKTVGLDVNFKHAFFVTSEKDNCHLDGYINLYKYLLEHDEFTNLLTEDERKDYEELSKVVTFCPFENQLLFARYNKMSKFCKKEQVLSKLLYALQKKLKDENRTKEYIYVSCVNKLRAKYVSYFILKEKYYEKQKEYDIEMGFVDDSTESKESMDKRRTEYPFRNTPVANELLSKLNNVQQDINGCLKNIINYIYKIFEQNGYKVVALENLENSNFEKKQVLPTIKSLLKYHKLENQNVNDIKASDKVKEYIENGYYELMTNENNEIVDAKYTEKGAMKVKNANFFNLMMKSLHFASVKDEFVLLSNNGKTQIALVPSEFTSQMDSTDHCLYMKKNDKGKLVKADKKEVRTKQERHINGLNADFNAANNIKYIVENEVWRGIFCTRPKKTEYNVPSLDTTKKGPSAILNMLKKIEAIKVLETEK
In short: (§1)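 HEK293T cells were lipofected with nuclease plasmid (pcDNA3.1 backbone) plus RNA guide plasmid, with guide omitted in negative controls. After ~72 h cells were lysed in QuickExtract and % indels were derived from NGS reads, averaged over two bioreplicates and two technical replicates.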

[2] = biological target: T2, variant nuclease D55G/E736G combination (P14R, D32R, I61R, E311R, D55G, E736G); assay: cell_activity; PAM 5'-TTTG-3'; details: tags: pcDNA3.1 expression
T2 chain: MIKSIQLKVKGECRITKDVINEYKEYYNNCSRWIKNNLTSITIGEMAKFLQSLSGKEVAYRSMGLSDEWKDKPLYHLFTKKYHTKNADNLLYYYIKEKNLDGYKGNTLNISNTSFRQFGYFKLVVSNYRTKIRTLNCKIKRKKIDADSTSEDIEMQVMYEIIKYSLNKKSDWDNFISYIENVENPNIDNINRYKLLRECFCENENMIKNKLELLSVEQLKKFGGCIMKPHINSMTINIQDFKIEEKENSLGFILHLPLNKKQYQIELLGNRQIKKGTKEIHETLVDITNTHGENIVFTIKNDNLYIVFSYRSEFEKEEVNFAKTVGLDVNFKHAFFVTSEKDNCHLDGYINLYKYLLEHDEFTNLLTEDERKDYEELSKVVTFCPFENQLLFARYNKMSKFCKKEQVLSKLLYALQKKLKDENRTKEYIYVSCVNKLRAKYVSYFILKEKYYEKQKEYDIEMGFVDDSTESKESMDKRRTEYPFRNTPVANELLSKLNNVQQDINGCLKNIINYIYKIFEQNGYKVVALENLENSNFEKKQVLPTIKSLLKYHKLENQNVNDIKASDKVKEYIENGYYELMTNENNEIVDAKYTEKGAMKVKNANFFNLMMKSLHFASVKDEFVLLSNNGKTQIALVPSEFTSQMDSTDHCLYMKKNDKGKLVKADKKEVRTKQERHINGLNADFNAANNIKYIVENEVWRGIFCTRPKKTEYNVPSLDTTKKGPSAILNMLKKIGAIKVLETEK
In short: as §1

B1: AAVS1 crRNA ; AAVS1 target (ssRNA ; dsDNA)
RNA: CUUGUUGUAUAUGUCCUUUUAUAGGUAUUAAACAACUGAGAAUGGUGCGUCCUAGG
DNA 1: TGAGAATGGTGCGTCCTAGG
DNA 2: CCTAGGACGCACCATTCTCA
- indel activity [1]: 1.28 fold of WT
- indel activity [2]: 5.76 fold of WT
